Article PMC7185628

Biological target: MERS-CoV spike protein (S) (MERS-CoV, UniProt K9N5Q8 18-1296)
Assay: EMSA

MERS-CoV spike protein (S), sequence (K9N5Q8 18-1296): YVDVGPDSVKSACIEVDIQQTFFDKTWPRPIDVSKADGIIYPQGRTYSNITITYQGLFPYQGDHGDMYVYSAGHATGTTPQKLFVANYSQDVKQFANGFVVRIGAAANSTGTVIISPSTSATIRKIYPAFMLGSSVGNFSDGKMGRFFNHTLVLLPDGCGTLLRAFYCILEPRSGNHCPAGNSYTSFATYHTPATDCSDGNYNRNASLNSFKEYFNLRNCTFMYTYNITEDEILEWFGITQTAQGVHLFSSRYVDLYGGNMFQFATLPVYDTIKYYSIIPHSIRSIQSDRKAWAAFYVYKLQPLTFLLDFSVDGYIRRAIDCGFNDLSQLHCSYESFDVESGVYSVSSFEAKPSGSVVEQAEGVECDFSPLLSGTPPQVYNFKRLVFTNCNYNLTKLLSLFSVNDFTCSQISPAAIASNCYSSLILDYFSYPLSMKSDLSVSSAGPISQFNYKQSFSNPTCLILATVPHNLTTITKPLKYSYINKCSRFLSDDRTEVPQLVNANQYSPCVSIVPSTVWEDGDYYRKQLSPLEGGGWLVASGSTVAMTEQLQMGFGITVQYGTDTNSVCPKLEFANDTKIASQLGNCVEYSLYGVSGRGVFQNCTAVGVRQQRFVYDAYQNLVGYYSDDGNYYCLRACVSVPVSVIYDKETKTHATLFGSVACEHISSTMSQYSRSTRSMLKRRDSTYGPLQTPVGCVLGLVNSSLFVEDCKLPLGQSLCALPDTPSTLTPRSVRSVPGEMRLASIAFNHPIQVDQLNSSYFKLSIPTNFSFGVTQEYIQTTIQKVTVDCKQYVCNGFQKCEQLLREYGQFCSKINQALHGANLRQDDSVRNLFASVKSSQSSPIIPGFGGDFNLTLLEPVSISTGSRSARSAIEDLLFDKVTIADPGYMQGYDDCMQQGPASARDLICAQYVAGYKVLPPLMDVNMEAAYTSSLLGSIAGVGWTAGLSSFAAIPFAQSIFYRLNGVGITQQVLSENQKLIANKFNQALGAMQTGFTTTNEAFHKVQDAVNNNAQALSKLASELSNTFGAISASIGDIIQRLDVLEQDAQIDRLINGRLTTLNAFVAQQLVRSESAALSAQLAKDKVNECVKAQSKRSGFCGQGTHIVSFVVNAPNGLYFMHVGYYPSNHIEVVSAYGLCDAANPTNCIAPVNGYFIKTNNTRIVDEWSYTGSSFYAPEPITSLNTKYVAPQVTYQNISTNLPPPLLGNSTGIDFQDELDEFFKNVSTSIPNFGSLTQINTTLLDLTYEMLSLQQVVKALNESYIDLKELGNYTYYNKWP

B1: AIapt/FAM/SH-DNA 3WJ (MF-DNA) (structured_DNA)
DNA 1: GTGTGCATGGATAGCACGTAACGGTGTAGTAGATACGTGCGGGTAGGAAGAAAGGGAAATAGTTGTCCTGTTGTTGCCATGTGTATGTGGG
DNA 2: CCCACATACTTTGTTGATCC
DNA 3: GGATCAATCATGGCAA
modifications: 5' thiol on strand 3 (SH/3WJc)
Question: Does B1 bind?
Answer: Result: no binding
